B1: TPR t1 (parent)
chain: GACCAAUCUGCCCUCAGAGCUCGAGAACAUCUUCGGAUGCAGAGGAGGCAGGCUUCGGUGGCGCGAUAGCGCCAACGUCCUCAACCUCCAAUGCAUCCCACCACAUGAUGAUGCCUGAAGAGCCUUGGUUUUUUG

Variants of: B1
Assay: polymerase ribozyme fitness, log enrichment relative to wild type (log ratio); higher = more active; in vitro selection for triplet polymerase activity
How it was run: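 Frozen incubation at −7 °C formed the core of a single, triplicate in vitro selection round applied to PCR-built, transcribed mutant libraries of each subunit of a heterodimeric triplet polymerase ribozyme. Extended constructs were gel-excised, captured with streptavidin beads and amplified by RT-PCR, and input and output libraries were Illumina-sequenced with a filter of ≥10 input reads and ≥1 read per output. Fitness is the logarithm of genotype enrichment relative to wild-type enrichment, with inverse-variance-weighted replicate averaging, and the logarithm is base 2.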

Variant	polymerase ribozyme fitness (log ratio)
GACCAAUCUGUCCUCAGAGCUCGAGUACAUCUUCGGAUGCAGAGGAGGCAGGCUCCGGUGGCGCGAUAGCGCCAGCGUCCUCCACCUCCAAUGCAUCCCACCACAUGAUGAUGCCUGAAGAGCCUUGGUUUUUUG [C11U A26U U55C A75G A83C]	-3.24
GACCAAUCUGGCCUCAGAGCUCGAGAACAUCUUCGGAUGCAGAGGAGGCAGGCUUCGGUGGCGCGAUAGCGCCAACGUCCUCAACCUCCAAUGCAUCCCACCACAUGAUGACGCCUGAAGAGCCUUGGUUUUUUG [C11G U112C]	1.9
GACCAAUCUGUCCUCAGAGCUCGAGUACAUCUUCGGAUGCAGAGGAGGCAGGCUUCGGUGGCGCGAUAGCGCCAACGUCCUCAACCUACAAUGCAUCCCACCACAUGAUGAUGCCUGAAGAGCCUUGGUUUUUUG [C11U A26U C88A]	-4.34
GACCAAUCUGUCCUCAGAGCUCGAGAACGUCUUCGGAUGCAGAGGAGGCAGGUUUCGGUGGCGCGAUAGCGCGAACGUCCUCAACCUCCAAUGCAUCCCACCACAUGAUGAUGCCUGAAGAGCCUUGGUUUUUUG [C11U A29G C53U C73G]	-1.9
GACCAAUCUGUCCUCAGAGCUCGAGAACAUCUUCGGCUGCAGAGUAGGCAGGCUUCGAUGGCGCGAUAGCGCCAACGUCCUCAACCUCCAAUGCAACCCAACACAUGAUGAUGCCUGAAGAGCCUUGGUUUUUUG [C11U A37C G45U G58A U96A C101A]	-2.32
GACCAAUCUGUCCUCAGCGCUCGAGAUCAUCUUCGGAUGCAGAGGUGGCAGGCUUCGGUGGCGCGAUAGCGCCAACGUCCUCAACCUCCAAUGCAUCCCACCACAUGAUGAUGCCUGAAGAGCCUUGGUUUUUUG [C11U A18C A27U A46U]	-7.63
GACCAAUCUGUCCUCAGAGCUCGAGAUCAUCGUCGGUUGCAGAGGAGGCAGGCUUCGGUGGAGCGAUAGCGCCAACGUCCUCAACCUCCAAUGCAUCCCACCACAUGAAGAUGCCUGAAGAGCCUUGGUUUUUUG [C11U A27U U32G A37U C62A U109A]	-5.82
GACCAAUCUGUCCUCAGCGCUCGAGAACAUCUUCGGAUGCAGAGGAGGCAGGCUUCGGUGGCGCGAUAGCGCCAACGUCCUAAACCUCCAAUGCAUCCCACCAUAUGAUGAUGCCUGAAGAGCCUUGGUUUUUUG [C11U A18C C82A C104U]	-2.34
GACCAAUCUGUCCUCAGAGCUCGAGAACAUCUUCGGAUGCUGAGGAGGCAGGCUUCGGUGGCACGAUAGCGCCAACGCCCUCAACCUUCAAUGCAUCCCACCACAUGAUGAUGUCUGAAGAGCCUUGGUUGUUUG [C11U A41U G63A U78C C88U C114U U131G]	-6.29
GACCAAUCUGUCCUCAGAGCUCGAGAACAUCUUCGGAUGCUGAGGAGGCAGUCUUCGGUGGCGCGAUAGCGCCAACGUCCUCAACCUCCAAUGCAUCCCACCACAUGAUGAUGCCUGAAGAGCCAUGGUUUUUUG [C11U A41U G52U U125A]	-3.07
GACCAAUCUGUCCUCAGAGCUCGAGAACAUCUUCGGAUGCUGAGGAGGCAGGCUUCGGUGGCGCGAUACCGCCAACGUCCUCAACCUCCAAUGCAUCCCACCACAUGAUGAUGCCUGAAGAGCCUUGGUUUUUUG [C11U A41U G69C]	-2.81
GACCAAUCUGUCCUCAGAGCUCGAGAUCAUCUUCGGAUGCAGAGGAGGCAGGCUUCGGUGGUGCGAUAGCGCCAACGUCCUCAACCUGCAAUGCAUGUUACCACAUGAUGAUGGCUGAAGAGCAUUGAUUUUUUG [C11U A27U C62U C88G C97G C98U C99U C114G C124A G128A]	-7.25
GACCAAUCUGUCCUCAGAGCUCGAGUACAUCUUCGGAUGCAGAGGAUGCAGGCUUCGGUGGCGCGAUAGCGCCAACGUCCUCAACCUCCAAUGCAUCCCACCACAUGAUGAUGCCUGAAGAGCCUUGGUUUUUUG [C11U A26U G47U]	-3.55
GACCAAUCUGGCCUCAGAGCUCGAGAACAUCUUCGGAUGCAGAGGAGGCAGGCUUCGGUGGCGCGAUAGCGCCAACGUCCUCAACCUCCAAUGCAUCCCACCACAUGAUGAUGCCUGAAGAGCCUUGGUUGUUUG [C11G U131G]	-0.902
GACCAAUCUGUCCUCAGAGCUCGAGUACAUCUUCGGAUGCAGAGGAGGCAGCCUUCGGUGUCGCGAUAGCGCCAACGUCCUCAACCUCCAAUGCAUCCCACCACAUGAUGAUGCCUGAAGAGCCUUGGUUUUUUG [C11U A26U G52C G61U]	-2.85
GACCAAUCUGUCCUCAGUGCUCGAGAACAUCUUCGGAUGCAGAGGAGGCAGGCUUCGGUGGCGCGAUAGCGCCAACGUCCUCAACCUCCAAUGCAUCCCACCACAUGAUGAUGCCUGAAGAGCCUUGGUUUUUUG [C11U A18U]	-1.98
GACCAAUCUGUCCUCGGAGCUCGAGAACAUCUUCGGAUGCAGAGGAGGCAGGCGUCGGUGGCGCGAUAGCGCCAACGUCCUCAACCUCCAAUGCAUCCCACUAUAUGAUGAUGCCUAAAGAGCCUUGGUUUUUUG [C11U A16G U54G C102U C104U G117A]	-5.64
GACCAAUCUGUCCUCAGAGCUCGAGAACAUCUUCGGAUGCAGUGGAGGCAGGCUUCGGUGUCCCGAUAGCGGCAACGUCCUCAACCUAUAAUGCAUCCCACCACAUGAUGUUGCCUGAAGAGCCUUGGUUUUUUG [C11U A43U G61U G63C C72G C88A C89U A111U]	-6.46
GACCAAUCUGGCCUCAGAGCUCGAGAACAUCUUCGGAUGCAGAGGAGGCAGGCUUCGGUGGCGCGAUAGCGCCAACGUCCUCAACCUCCAAUGCAACCCACCACAUGAUGAUGCCUGAAGAGCCUUGGGUUUUUG [C11G U96A U129G]	-2.87
GACCAAUCUGGCCUCAGAGCUCGAGAACAUCUUCGGAUGCAGAGGAGGCAGGCUUCGGUGGCGCGAUAGCGCCAACGUCCUCAACCUCCAAUGCAACCCACCACAUGAUGAAGCCUGAAGAACCUUGCUUUUUUG [C11G U96A U112A G122A G128C]	-1.26
GACCAAUCUGGCCUCAGAGCUCGAGAACAUCUUCGGAUGCAGAGGAGGCAGGCUUCGGUGGCGCGAUAGCGCCAACGUCCUCAACCUCCAAUGCAACCCACCACAUGAUGAUGCCUGAAGAGCCUUGGUUUUUUG [C11G U96A]	-0.629

From the RNAGym collection of RNA variant scans (doi:10.1073/pnas.2313332121)
